Data on 9 substances can be found in patent US20120251580A1.

For assay [1], the target named is purified recombinant galectin-3 (gal3) (UniProt P17931). Briefly: solid phase assay, inhibition of gal3 binding to asialofetuin.
Assay [2] has the same target. The assay can be described thus: SPR (Biacore T200), biotinylated gal3 captured on SA chip, TFD100 0.312-10 nM, 1:1 binding model.
Assay [3] has as its target gal3 on the surface of B16 melanoma cells (murine) (UniProt P16110). The assay can be described thus: cell-based or functional assay.
In assay [4] the target is purified recombinant galectin-3 (gal3) (UniProt P17931). Briefly: cell-based or functional assay.
Assay [5] addresses prostate cancer patient serum-associated gal3 (human) (UniProt P17931). Briefly: cell-based or functional assay.
For assay [6], the target named is gal3 on the surface of human PC3 and HUVEC cells (human) (UniProt P17931). Briefly: cell-based or functional assay.
In assay [7] the target is purified recombinant galectin-3 (gal3) (UniProt P17931). The assay can be described thus: solid phase assay, inhibition of gal3 binding to plate-bound asialofetuin (competitor).
In assay [8] the target is N-terminal of gal9 (gal9N). Briefly: solid phase assay, inhibition of gal9N binding to plate-bound asialofetuin (competitor), anti-galectin antibody detection.
In assay [9] the target is N-terminal of gal9 (gal9N). The assay can be described thus: solid phase assay, inhibition of gal9N binding to asialofetuin.
For assay [10], the target named is purified recombinant galectin-3 (gal3) (UniProt P17931). The assay can be described thus: solid phase assay, inhibition of gal3 binding to asialofetuin, molar basis.
Assay [11] has the same target. The assay can be described thus: SPR (Biacore T200), derived from the dissociation rate. In general terms: SPR reads the build-up and loss of mass on a sensor chip optically.
Assay [12] has as its target gal4. The assay can be described thus: solid phase assay, inhibition of gal4 binding to plate-bound asialofetuin (competitor), anti-galectin antibody detection.
Assay [13] addresses gal4. Briefly: solid phase assay, inhibition of gal4 binding to asialofetuin.
In assay [14] the target is purified recombinant galectin-3 (gal3) (UniProt P17931). The assay can be described thus: SPR (Biacore T200), biotinylated gal3 captured on SA chip, 1:1 binding model.
In assay [15] the target is gal3 on the surface of human PC3 and HUVEC cells (human) (UniProt P17931). Briefly: flow cytometry on PC3 cells (unstained cells 205), control. For orientation: Flow cytometry measures light scatter and fluorescence of single cells or particles in a stream.
Assay [16] addresses gal3 on the surface of B16 melanoma cells (murine) (UniProt P16110). The assay can be described thus: flow cytometry on B16 melanoma cells (unstained cells 214), control.
In assay [17] the target is gal3 on the surface of human PC3 and HUVEC cells (human) (UniProt P17931). The assay can be described thus: flow cytometry on HUVEC cells (unstained cells 97), control.

Chain of gal3 on the surface of human PC3 and HUVEC cells (human) (P17931 2-250): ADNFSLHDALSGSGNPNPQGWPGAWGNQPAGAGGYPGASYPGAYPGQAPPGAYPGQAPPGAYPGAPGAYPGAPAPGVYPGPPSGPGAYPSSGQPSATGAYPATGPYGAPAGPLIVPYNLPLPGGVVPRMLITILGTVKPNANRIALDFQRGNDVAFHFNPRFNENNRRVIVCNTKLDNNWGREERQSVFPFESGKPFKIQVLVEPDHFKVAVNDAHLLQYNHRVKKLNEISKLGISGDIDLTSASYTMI
Chain of purified recombinant galectin-3 (gal3) (P17931 whole entry): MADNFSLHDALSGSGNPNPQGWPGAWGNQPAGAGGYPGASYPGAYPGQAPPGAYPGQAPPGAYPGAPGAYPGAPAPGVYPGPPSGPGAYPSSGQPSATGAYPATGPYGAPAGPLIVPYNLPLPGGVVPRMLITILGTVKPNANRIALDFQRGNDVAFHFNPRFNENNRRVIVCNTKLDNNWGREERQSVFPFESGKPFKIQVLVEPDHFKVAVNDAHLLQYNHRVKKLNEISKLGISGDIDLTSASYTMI
Chain of gal3 on the surface of B16 melanoma cells (murine) (P16110 2-264): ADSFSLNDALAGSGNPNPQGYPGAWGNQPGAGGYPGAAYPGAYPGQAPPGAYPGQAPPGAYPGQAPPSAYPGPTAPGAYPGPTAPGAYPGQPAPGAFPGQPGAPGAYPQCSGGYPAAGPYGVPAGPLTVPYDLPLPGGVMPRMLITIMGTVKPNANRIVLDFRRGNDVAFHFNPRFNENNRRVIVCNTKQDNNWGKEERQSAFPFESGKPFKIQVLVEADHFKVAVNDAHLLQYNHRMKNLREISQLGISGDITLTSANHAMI
Chain of prostate cancer patient serum-associated gal3 (human) (P17931 2-250 limits assumed): as the sequence (P17931 2-250) above

The term IC50 denotes the concentration at which inhibition is half-maximal. Take “Crude extract (crude anti-freeze glycoproteins of cod, A/F Protein)”: in [1], the IC50 stood at 108 µg/mL and the RIA (relative inhibitory activity compared to lactose taken as 1) (relative to lactose = 1) was found to be 0.25.

For “Fraction 1 (>50 kDa) of cod anti-freeze glycoproteins”, in [1], the IC50 turned out to be 2.5 µg/mL and the RIA (relative inhibitory activity compared to lactose taken as 1) (relative to lactose = 1) turned out to be 10.5.

In the case of “Fraction 2 (<50 kDa, >30 kDa) of cod anti-freeze glycoproteins”, in [1], the IC50 amounted to 27 µg/mL and the RIA (relative inhibitory activity compared to lactose taken as 1) (relative to lactose = 1) is 1.

“Fraction 3 (<30 kDa, >10 kDa) of cod anti-freeze glycoproteins”: in [1], the IC50 amounted to 82 µg/mL and the RIA (relative inhibitory activity compared to lactose taken as 1) (relative to lactose = 1) is 0.33.

As to “Fraction 4 (<10 kDa, >3 kDa) of cod anti-freeze glycoproteins”, in assay [1], the IC50 worked out at 300 µg/mL and the RIA (relative inhibitory activity compared to lactose taken as 1) (relative to lactose = 1) came out at 0.09.

For “Fraction 5 (<3 kDa) of cod anti-freeze glycoproteins”, in [1], the RIA (relative inhibitory activity compared to lactose taken as 1) (relative to lactose = 1) is under 0.06.

For orientation: % inhibition means the relative decrease from the control value, in per cent. Consider O-glycosidase treated TFD100, for which the % inhibition at 6.2 nM in assay [1] was 45%.

Broadly, the Kd is a measure of binding affinity in units of concentration. The term koff denotes the first-order rate constant of dissociation. The kon is a measure of how fast the partners come together. As for “TFD100 (Thomsen-Friedenreich disaccharide-containing glycopeptide of approximately 100 kDa purified from Pacific cod, Gadus macrocephalus)”, the Kd in assay [2] is 0.0968 nM. The substance further had an apoptosis of activated tumor specific CD8+ T cells on a B16 monolayer with 3.5 nM TFD100 (about 53% without) in [3] of 36 % apoptosis. In assay [4], the apoptosis of activated pmel CD8+ T cells with 5 µM recombinant gal3 plus 3.5 nM TFD100 (˜76% with gal3 alone, ˜61% CD8 alone) is 72 % apoptosis; the inhibition of gal3 (5 µM)-induced apoptosis of MOLT-4 cells by 3.5 nM TFD100 (annexin V binding) worked out at 34%; the inhibition of gal3 (5 µM)-induced apoptosis of human CD8+ T cells by 3.5 nM TFD100 was found to be 77%; the inhibition of gal3 (5 µM)-mediated apoptosis of Jurkat cells by 3.5 nM TFD100 amounted to 63%. The apoptosis of activated tumor-specific CD8+ cells with patient serum plus 3.5 nM TFD100 (87-93% with patient serum alone) in [5] came out at 66 % apoptosis. Also, in assay [6], the inhibition of binding of calcein-labeled PC3 cells to HUVEC monolayer (PC3 pre-treated with 3.5 nM TFD100) is 33% and the inhibition of tumor-endothelial cell interactions (HUVEC monolayer pre-incubated with 3.5 nM TFD100) was 45%. The IC50 in [7] was determined as 0.25 nM. In assay [8], this substance had an IC50 of 1.5 nM. Besides, the RIA (relative inhibitory activity compared to lactose taken as 1) (fold vs lactose) in assay [9] was determined as 66700. For the same substance, in assay [10], the fold activity in inhibiting gal3 binding compared to free TFD turned out to be 800000 fold. For the same substance, the half-life for the complex in [11] came out at 38.5 min. Further, the RIA (relative inhibitory activity compared to lactose taken as 1) (fold vs lactose) in [1] amounted to 400000. This substance registered an IC50 with gal4 [12] of 1.2 nM. The RIA (relative inhibitory activity compared to lactose taken as 1) (fold vs lactose) in the assay with gal4 [13] amounted to 8.33e+06. In addition, in assay [14], the koff was 0.0003 s⁻¹ and the kon amounted to 3.1e+06 M⁻¹ s⁻¹.

Turning to “pre-immune IgG (protein A-Sepharose purified pre-immune rabbit serum) (antibody)”, the mean fluorescence unit (mfu) in assay [15] came out at 759 mfu; in assay [16], 1000 mfu; in [17], 95 mfu.
